Experimental data: patent US20210277118A1 (Daiichi Sankyo, published 2021)

Experiments:
[1] = target: T1, monkey CD3 epsilon/delta expressed on transfected Lenti-X293T cells (cynoCD3epsilon-pcDNA3.1 and … (monkey, UniProt Q95LI5 22-198; Q95LI8 22-171); assay: flow cytometry on transfected Lenti-X293T cells, hybridoma supernatant
T1 construct: whole, on cells
Method: Flow cytometry analysis of binding activity to monkey CD3. The monkey CD3 binding specificity of the antibody produced by each hybridoma determined to produce the antibody binding to human CD3 was further confirmed by flow cytometry. Each Lenti-X293T cell suspension was added at a concentration of 100 μL/well to a 96-well U-bottomed microplate and centrifuged to remove a supernatant. The cynoCD3c-pcDNA3.1- and cynoCD3δ-pcDNA3.1-transfected Lenti-X293T cells or the pcDNA3.1-DEST-transfected Lenti-X293T cells were suspended by the addition of the hybridoma culture supernatant and left standing at 4° C. for 1 hour. The cells were washed once with PBS containing 5% FBS, then suspended by the addition of Anti-Rat IgG FITC conjugate diluted 500-fold with PBS containing 5% FBS, and left standing at 4° C. for 30 minutes. The cells were washed twice with PBS containing 5% FBS and then resuspended in PBS containing 5% FBS and 2 μg/ml 7-aminoactinomycin D, followed by detection using a flow cytometer. The data was analyzed using Flowjo. After removal of 7-aminoactinomycin D-positive dead cells by gating, the FITC fluorescence intensity of live cells was plotted to a histogram.

[2] = target: T2, human CD3 epsilon/delta expressed on transfected cells (hCD3epsilon-pcDNA3.1 and hCD3delta-pcDNA3.1 in … (human, UniProt P07766 23-207; P04234 22-171); assay: cell ELISA and flow cytometry on transfected cells, hybridoma supernatant
T2 construct: whole, on cells
T2 sequence (P07766 23-207, stated change not applied, chain 1 of 2): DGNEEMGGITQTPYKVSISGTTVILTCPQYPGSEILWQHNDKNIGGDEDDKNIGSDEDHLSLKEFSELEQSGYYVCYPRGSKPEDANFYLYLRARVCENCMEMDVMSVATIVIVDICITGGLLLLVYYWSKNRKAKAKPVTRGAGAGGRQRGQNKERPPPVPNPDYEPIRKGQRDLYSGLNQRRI
T2 sequence (P04234 22-171, stated change not applied, chain 2 of 2): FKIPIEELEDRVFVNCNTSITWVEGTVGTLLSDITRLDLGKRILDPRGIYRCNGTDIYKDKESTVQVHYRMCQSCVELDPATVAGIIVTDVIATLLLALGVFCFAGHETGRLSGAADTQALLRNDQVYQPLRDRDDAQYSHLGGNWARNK

T1 sequence (Q95LI5 22-198, stated change not applied, chain 1 of 2): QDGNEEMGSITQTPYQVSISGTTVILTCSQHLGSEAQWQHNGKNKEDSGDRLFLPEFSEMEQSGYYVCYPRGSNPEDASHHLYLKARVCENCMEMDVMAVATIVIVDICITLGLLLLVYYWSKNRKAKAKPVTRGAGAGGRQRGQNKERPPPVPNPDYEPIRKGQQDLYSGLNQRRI
T1 sequence (Q95LI8 22-171, stated change not applied, chain 2 of 2): as the sequence (P04234 22-171, stated change not applied, chain 2 of 2) above, with I5V, N15K, I20V, S32T, D33N, I34N, T64A, S74N, V83L, H141R counted along it

binding result [1]: binds
binding result [2]: binds
B1: rat anti-CD3 monoclonal antibody C3-147 (antibody, rat IgG2b, V domains shown)
VH: EVQLVESGGGLVQPGRALKLSCVVSGVTFNYYGMSWIRQAPGKGLEWVASITNSGGRIYYPDSVKGRFTISRENTQKTLYLQMNSLRSEDTATYYCTLDGRDGWVAYWGQGTLVTVSS
VL: QFVLTQPNSVSTNLGTTVELSCKRNTGNIGSNYVNWYQQHEGRSPTTIIYRDDKRPDGVSDRFSGSIDRSSKSALLTINNVQTEDEADYFCQSYSSGFIFGGGTKLTVL
notes: Rat IgG2b with lambda chains (printed 'X chains'); tested as hybridoma culture supernatant
